Laboratory results taken from US20170291954A1.

Tests used:
GPC3-GST fusion protein [1] = assay: ELISA, GPC3-GST fusion protein as antigen at 1 ug/ml
GPC3-GST fusion protein [2] = assay: ELISA, GPC3-GST fusion protein as antigen at 0.5 ug/ml

GPC3-GST fusion protein, sequence (P51654 368-548): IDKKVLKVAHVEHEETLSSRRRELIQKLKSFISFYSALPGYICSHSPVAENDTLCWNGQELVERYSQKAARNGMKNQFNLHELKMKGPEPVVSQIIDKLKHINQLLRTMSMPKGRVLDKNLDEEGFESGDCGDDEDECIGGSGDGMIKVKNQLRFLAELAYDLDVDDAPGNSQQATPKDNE

- EC50 (GPC3-GST fusion protein [1]): 43.1 nM
- EC50 (GPC3-GST fusion protein [2]): 52 nM
B1: 4E5 scFv, secreted from yeast as a fusion protein and purified on nickel-HIS beads (scFv, part only; not given: linker and fusion partner, not shown: large carriers)
scFv, part: QVQLQQSGAELVRPGASVKLSCKASGYTFNDYEMHWVKQTPVHGLKWIGALEPKTGDTAYSQKFKGKATLTADKSSSTAYMELRSLTSEDSAVYYCTSCYYYTYSGQGTLVTVSADVVMTQTPLSLPVSLGDQASISCRSSQSLVHSNGNTYLHWYLQKPGQSPKLLIYKVSNRFSGVPDRFSGSGSGTDFTLKISRVEAEDLGVYFCSQNTPVPPKFGSGTKLEIK
